Consider two molecules from article PMC12582567, “Short heat shock factor A2 regulates heat resistance and growth balance in Arabidopsis”.

The target of series [1] is T1, His6-HsfA2 (Arabidopsis thaliana Col-0, UniProt O80982 1-345). The series can be described thus: streptavidin-agarose pull-down; 0 hr prebinding control; EMSA: LightShift kit 1x binding buffer, 50 ng poly(dI-dC), 2.5% glycerol, 0.05% NP-40, 5 mM MgCl2, 100 ng protein, 1.5 ng probe, 30 min, room temperature; pull-down: 50 mM Tris-HCl pH 7.5, 100 mM NaCl, 0.1% Triton X-100, poly(dI-dC), 25 C. The conditions noted are these: protein: recombinant; tags: His6 (pET-28a); chain copies: 3; label: 5' biotin; blunt. On the technique in general: Mobility shift assays separate free from complexed probe on a gel.

Another series addresses His6-DBD (Arabidopsis thaliana Col-0, UniProt O80982 42-135). The series can be described thus: EMSA; EMSA: LightShift kit 1x binding buffer, 50 ng poly(dI-dC), 2.5% glycerol, 0.05% NP-40, 5 mM MgCl2, 100 ng protein, 1.5 ng probe, 30 min, room temperature; pull-down: 50 mM Tris-HCl pH 7.5, 100 mM NaCl, 0.1% Triton X-100, poly(dI-dC), 25 C. The conditions noted are these: protein: recombinant; tags: His6 (pET-28a); label: 5' biotin; blunt.

The target in another series is His6-tDBD (Arabidopsis thaliana Col-0, UniProt J7G1E7 42-103). Described as above. The conditions noted are these: protein: recombinant; tags: His6 (pET-28a); label: 5' biotin; blunt.
Another series addresses His6-S-HsfB1 (Arabidopsis thaliana Col-0, UniProt J7FYU6 1-86). The series is described as above. The conditions noted are these: protein: recombinant; tags: His6 (pET-28a); label: 5' biotin; blunt.
For another series, the target named is His6-S-HsfB2a (Arabidopsis thaliana Col-0, UniProt J7G5V7 1-85). Described as above. The conditions noted are these: protein: recombinant; tags: His6 (pET-28a); label: 5' biotin; blunt.
In the next series the target is His6-S-HsfA4c (Arabidopsis thaliana Col-0, UniProt J7FXE8 1-102). The series is described as above. The conditions noted are these: protein: recombinant; tags: His6 (pET-28a); label: 5' biotin; blunt.
Series [2] addresses T1, His6-HsfA2. The series is described as above. The conditions noted are these: protein: recombinant; tags: His6 (pET-28a); chain copies: 3; label: 5' biotin; blunt.

T1 sequence (O80982 whole entry): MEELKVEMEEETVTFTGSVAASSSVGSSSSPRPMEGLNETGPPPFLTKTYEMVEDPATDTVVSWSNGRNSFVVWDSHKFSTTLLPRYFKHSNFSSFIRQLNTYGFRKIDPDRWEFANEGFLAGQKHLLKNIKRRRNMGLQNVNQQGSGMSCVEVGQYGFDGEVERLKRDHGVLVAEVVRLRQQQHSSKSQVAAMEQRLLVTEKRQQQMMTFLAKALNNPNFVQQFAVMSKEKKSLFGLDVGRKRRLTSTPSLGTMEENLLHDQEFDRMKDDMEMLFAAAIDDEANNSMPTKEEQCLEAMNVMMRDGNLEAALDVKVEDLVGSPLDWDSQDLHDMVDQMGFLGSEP
His6-DBD, sequence (O80982 42-135): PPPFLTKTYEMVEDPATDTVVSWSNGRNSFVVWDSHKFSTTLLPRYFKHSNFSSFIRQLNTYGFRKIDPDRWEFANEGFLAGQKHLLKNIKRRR
His6-tDBD, sequence (J7G1E7 entry or part of it): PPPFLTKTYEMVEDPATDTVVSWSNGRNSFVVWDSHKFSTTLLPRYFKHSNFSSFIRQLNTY
His6-S-HsfB1, sequence (J7FYU6 entry or part of it): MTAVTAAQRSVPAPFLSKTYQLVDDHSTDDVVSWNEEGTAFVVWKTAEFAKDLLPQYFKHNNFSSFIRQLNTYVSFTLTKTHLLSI
His6-S-HsfA4c, sequence (J7FXE8 entry or part of it): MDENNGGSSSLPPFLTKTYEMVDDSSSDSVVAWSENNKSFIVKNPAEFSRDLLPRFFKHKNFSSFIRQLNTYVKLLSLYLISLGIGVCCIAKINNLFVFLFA
His6-S-HsfB2a, sequence (J7G5V7 entry or part of it): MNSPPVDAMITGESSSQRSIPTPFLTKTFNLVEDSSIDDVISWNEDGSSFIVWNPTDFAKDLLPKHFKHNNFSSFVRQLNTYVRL

B1: HSE probe (dsDNA)
DNA 1: TCGACTTCTAGAAGCTTCCAGAAATTAG
DNA 2: CTAATTTCTGGAAGCTTCTAGAAGTCGA
On to B1, for which the binding result with His6-HsfA2 [1] and in the series with His6-DBD was “binds” throughout.

B2: 3xHRE probe (dsDNA)
DNA 1: GAAGAAGGAAGAAGGAAGAAG
DNA 2: CTTCTTCCTTCTTCCTTCTTC
Regarding B2, the binding result is on record as “binds” in the series with His6-tDBD; “binds” with His6-S-HsfB1; “no binding” in the series with His6-S-HsfB2a; “binds” in the series with His6-S-HsfA4c; “no binding” with His6-HsfA2 [2].
